Laboratory results reported in patent US20230071765A1, “COMPOSITIONS HAVING THIOREDOXIN ACTIVITY AND RELATED METHODS” (ORPRO THERAPEUTICS, INC., priority 2020, published 2023).

Tests used:
[1] = tested on: 4% HBE mucus from CF donors; test: rheology of 4% solids CF HBE mucus (G′, G″); assay type: biochemical, human; conditions: 1 hr at 37° C.
Text: Mucus Preparation: Aseptic mucus was harvested from over 100 individual HBE cultures from 20 different CF donors and prepared to four weight-percent (4%) solids, a concentration that typifies chronic obstructive pulmonary disease (COPD) and mild CF (Hill, D. B. et al., 2014, A biophysical basis for mucus solids concentration as a candidate biomarker for airways disease, PloS one 9, e87681; Anderson, W. H. et al., 2015, The relationship of mucus concentration (hydration) to mucus osmotic pressure and transport in chronic bronchitis., Am J Resp Crit Care Med 192: 182-90). Rheology: HBE cell culture mucus was treated with DTT (1 mM) and several concentrations of ORP100S (0.01, 0.1, and 1.0 mM) for 1 hr at 37° C. following previously established methods (Hill, D. B., and Button, B., 2012, Establishment of respiratory air-liquid interface cultures and their use in studying mucin production, secretion, and function. In Mucins: Methods and Protocols, D. J. Thornton, ed., pp. 245-58; Youngren-Ortiz, S. et al., 2017, Development of optimized inhalable Gemcitabine-loaded gelatin nanocarriers for lung cancer, J Aerosol Med Pulm Drug Delivery 30:299-321; Seagrave, J., et al., 2012, Effects of guaifenesin, N-acetylcysteine, and ambroxol on MUC5AC and mucociliary transport in primary differentiated human tracheal-bronchial cells, Respir Res 13: 98). Concentration and time course assays were performed using a TA Instruments DHR3 rheometer to assess the bulk, macroscopic biophysical effects of test article and controls on HBE mucus properties. Briefly, the linear regime of a 1 Hz amplitude (stress) sweep was identified for each treatment condition. […] Creep recovery experiments were performed in which a known stress (between 0.05 and ˜100 Pa) was applied to treated or control mucus for 10 seconds, and the rheological recovery of the fluid was recorded for an additional 50 seconds. […] From the measured parameters the viscosity and elasticity of the fluid were determined as a function of applied stress. Frequency sweeps were performed at both constant stress and strains and used to determine the baseline physical properties of mucus and its elastic and viscous components (G′ and G″, respectively). Mucin molecular weight determination: Molecular weight reduction following test article treatment was determined using a combination of gel-permeation chromatography with multi-angle laser light scattering on a Wyatt Heleos MALLS system. MALLS is a rapid and accurate means of determining molecular size and mass of high MW biomolecules in a non-destructive manner without requiring the use of relative standards. Briefly, 4% HBE treated samples were diluted 100-fold in 0.9% NaCl with 10 mM EDTA and 0.01% sodium azide. 0.2 mL of diluted sample was eluted through a Sepharose CL2B column to separate high MW mucins from other mucus proteins, and the mucin fraction was introduced into the MALLS system. Mucin MW was determined by fitting a Berry model to light scattering from 11 different angles using Wyatt Astra software.
FIGS. 5, A and B (top): Reduction in Elastic (G′) and Viscous (G″) moduli of 4% solids dry weight mucus reduced with DTT (1 mM) and ORP100S (0.01, 0.1, and 1.0 mM concentrations) for 1 hr at 37° C. […] All data were collected by examining frequency sweeps of mucus performed in the linear regime and analyzed at 1 rad/s on a TA DHR3 rheometer.

[2] = stability analysis, lyophilized vs solution (DTNB and SEC-HPLC); assay type: physicochemical
Description: Prior work, e.g. WO 2006/090127, teaches compositions for maintenance of thioredoxin in the reduced state. Significant experimentation was required to derive compositions able to keep thioredoxin reduced during storage, and these compositions were complex and required saccharide derivatives and EDTA as excipients. […] ORP-100 and ORP100S proteins were reduced with 100 mM DTT and exchanged over a NAP-5 column into volatile 20 mM ammonium acetate buffer at pH 5.5 to remove residual reductant. Half of the material was frozen at −80° C. then lyophilized while the remainder was kept in solution at either 5° C. or 40° C. for various time points (“PH5.5”). Lyophilized protein was reconstituted back into 20 mM ammonium acetate pH 5.5 immediately prior to evaluation at each time point (“Lyophilized”). Stability was assessed by measuring both free SH groups (DTNB chromogenic assay) and the percent monomers (SEC-HPLC).
For FIG. 3: PH5.5: ORP-100 or ORP100S protein maintained in liquid formulation of 20 mM ammonium acetate, pH 5.5 for 0, 3, 7, 14, 21, 28, 90, or 180 days. Lyophilized: ORP-100 or ORP100S protein stored in the lyophilized form at 5° C. or 40° C. for the 0, 3, 7, 14, 21, 28, 90, or 180 days and assayed following reconstitution in 20 mM ammonium acetate, pH 5.5. Percent free sulfhydryl (reduction state) at 5° C. Second panel: Percent monomer determined by SEC assay at 5° C. Third panel: Percent free sulfhydryl at 40° C. Fourth panel: Percent monomer determined by SEC assay at 40° C.

B1: ORP100S: thioredoxin with monothiol active site, Cys35 and non-active Cys 62, 69 and 73 substituted with serine (SEQ ID NO:29) (protein)
chain: MVKQIESKTAFQEALDAAGDKLVVVDFSATWCGPSKMIKPFFHSLSEKYSNVIFLEVDVDDSQDVASESEVKSMPTFQFFKKGQKVGEFSGANKEKLEATINELV
modifications: synthetic peptide motif
- reduction in elastic modulus G′ ([1]; 10 μM): significant reduction in G′ was not apparent
- reduction in viscous modulus G″ ([1]; 10 μM): ~2 fold
- reduction in viscous modulus G″ ([1]; 100 μM): reduced by a similar amount as observed with 10 μM
- elastic modulus G′ ([1]; 100 μM, baseline value 0.28 Pa): 0.19 Pa
- reduction in G′, factor ([1]; 1 mM): ~3
- reduction in G″, factor ([1]; 1 mM): ~3
- storage stability (free SH, percent monomer) ([2]; lyophilized form, six months at 40° C.): excellent storage stability
- monomer stability by SEC-HPLC vs. ORP-100 ([2]; particularly first week of storage in liquid formulation): slightly better monomer stability
